Here are results for one molecule from PMC8664846, “Heterogeneous dissociation process of truncated RNAs by oligomerized Vasa helicase” (Communications Biology, 2021).

Data set [1] deals with the molecule itself. The data set can be described thus: single-molecule fluorescence intensity counting (TIRF microscopy); TMR-labelled Vasa adsorbed on poly-L-lysine-coated glass; number of molecules in a spot from the intensity of a single TMR; 30 mM HEPES pH 7.3, 150 mM potassium acetate, 5 mM magnesium acetate, 0.1% NP-40, 500 uM TCEP, oxygen scavengers; with 5 ug/ml yeast RNA further oligomerization.

The target of data set [2] is T1, Siwi-piRISC (FLAG-Siwi loaded with piRNA) (Bombyx mori, UniProt A8D8P8 1-899).
T1 construct: Siwi (Silkworm Piwi), PIWI protein of Bombyx mori; In the assay Siwi carried piRNA (exogenous piRNA-4) and was held on the glass through the biotinylated, ATTO647N-labelled target RNA; the only protein chain is Siwi; also called Silkworm Piwi; source: BmN4 cells, purified (anti-FLAG gel column)
T1 sequence (looked up): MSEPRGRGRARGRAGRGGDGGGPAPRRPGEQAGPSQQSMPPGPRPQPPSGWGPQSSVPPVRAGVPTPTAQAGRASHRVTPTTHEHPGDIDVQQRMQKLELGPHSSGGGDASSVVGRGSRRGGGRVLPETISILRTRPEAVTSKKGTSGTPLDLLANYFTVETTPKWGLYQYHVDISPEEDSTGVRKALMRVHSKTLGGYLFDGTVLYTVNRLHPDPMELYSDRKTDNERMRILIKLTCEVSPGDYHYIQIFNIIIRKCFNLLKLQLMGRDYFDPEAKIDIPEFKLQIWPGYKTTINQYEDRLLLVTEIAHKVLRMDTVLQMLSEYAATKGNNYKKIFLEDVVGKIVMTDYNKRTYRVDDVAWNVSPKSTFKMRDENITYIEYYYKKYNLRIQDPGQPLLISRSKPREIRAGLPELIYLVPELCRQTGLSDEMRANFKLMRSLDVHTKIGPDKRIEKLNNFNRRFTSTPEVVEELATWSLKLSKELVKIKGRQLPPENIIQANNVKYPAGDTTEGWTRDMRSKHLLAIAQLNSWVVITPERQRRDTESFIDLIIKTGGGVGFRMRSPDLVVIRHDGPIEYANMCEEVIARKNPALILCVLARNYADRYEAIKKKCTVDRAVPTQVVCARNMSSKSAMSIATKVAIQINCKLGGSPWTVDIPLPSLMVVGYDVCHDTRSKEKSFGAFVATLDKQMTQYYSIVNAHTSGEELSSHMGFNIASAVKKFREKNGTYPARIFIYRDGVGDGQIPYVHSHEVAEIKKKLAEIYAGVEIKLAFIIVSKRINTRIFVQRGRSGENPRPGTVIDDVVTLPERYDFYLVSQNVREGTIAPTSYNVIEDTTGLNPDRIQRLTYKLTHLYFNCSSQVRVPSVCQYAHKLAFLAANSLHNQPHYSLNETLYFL
Description: single-molecule two (or three)-colour colocalisation (TIRF microscopy); premix of 10 nM biotinylated ATTO647N target RNA, 625 nM TMR-Vasa and 380 nM Siwi fixed on the surface by avidin-biotin through the target RNA; exogenous piRNA-4; assay buffer with oxygen scavenger; no ATP. As to conditions: both partners purified.

B1: FLAG-Halo-Vasa (wild-type Bombyx mori Vasa) (enzyme, UniProt O01378 1-601, looked up)
chain: MDDDWDDSCEAVVVPPPPLQNHDSVDEGHSLSRGRGFPSFNEDDEKENGYGERRGRGGRGGGRGRGGRGGRGGSREQHSDYETNGDHDDRGRGERGRGRGRGGRGGGRGGGGGGGDRNDYEDNEIGENGETKKPVTYVPPEPTNDETEIFSSTISSGINFDKFDHIAVKVSGENPPRPIESFETANLRKYVLDNVLKAGYRKPTPIQKNAIPIIMSGRDLMGCAQTGSGKTAAFLVPIINMLLQDPKDLISENGCAQPQVIIVSPTRELTLQIFNEARKFSYGSVLKVAVAYGGTAVRHQGDNIARGCHILVATPGRLHDFVERNRVSFGSVRFVVLDEADRMLDMGFMPSIEKMMLHPTMVETTKRQTLMFSATFPEDIQHLAGRFLNNYLFVAVGIVGGASTDVEQIFIEVTKYEKRNSLKQLIEENDGKRILVFVETKRNADFIAAMLSEQQLLTSSIHGDRMQREREEALQNFKSGKHCILVATAVAARGLDIKNVDIVVNYDLPKSIDEYVHRIGRTGRVGNRGKAVSFYDSDQDLALVADLSKILRQADQSVPDFLKGGGTATFKGNKYGGSDVRNFNNANTAVVDQGQEPEEEW
modifications: TMR-labelled HaloTag ligand on the HaloTag; the immobilised copy in the aggregation measurement also labelled with Biotin-XX-NHS
notes: Vasa, ATP-dependent DEAD-box RNA helicase of Bombyx mori, wild type; Non-fluorescent Vasa was used only in RNA dissociation assays; also called WT-Vasa; TMR-Vasa; source: BmN4 cells, purified (anti-FLAG gel column); not shown: HaloTag, N-terminal, kept
As for B1, the “stoichiometry N” value in data set [1] was determined as 2. Moreover, in data set [2], the binding result was “binds”.
